Test results from paper PMC10858868, “TFIP11 promotes replication fork reversal to preserve genome stability”.

Target: T1, TFIP11 (UniProt Q9UBB9 1-837)
T1 sequence: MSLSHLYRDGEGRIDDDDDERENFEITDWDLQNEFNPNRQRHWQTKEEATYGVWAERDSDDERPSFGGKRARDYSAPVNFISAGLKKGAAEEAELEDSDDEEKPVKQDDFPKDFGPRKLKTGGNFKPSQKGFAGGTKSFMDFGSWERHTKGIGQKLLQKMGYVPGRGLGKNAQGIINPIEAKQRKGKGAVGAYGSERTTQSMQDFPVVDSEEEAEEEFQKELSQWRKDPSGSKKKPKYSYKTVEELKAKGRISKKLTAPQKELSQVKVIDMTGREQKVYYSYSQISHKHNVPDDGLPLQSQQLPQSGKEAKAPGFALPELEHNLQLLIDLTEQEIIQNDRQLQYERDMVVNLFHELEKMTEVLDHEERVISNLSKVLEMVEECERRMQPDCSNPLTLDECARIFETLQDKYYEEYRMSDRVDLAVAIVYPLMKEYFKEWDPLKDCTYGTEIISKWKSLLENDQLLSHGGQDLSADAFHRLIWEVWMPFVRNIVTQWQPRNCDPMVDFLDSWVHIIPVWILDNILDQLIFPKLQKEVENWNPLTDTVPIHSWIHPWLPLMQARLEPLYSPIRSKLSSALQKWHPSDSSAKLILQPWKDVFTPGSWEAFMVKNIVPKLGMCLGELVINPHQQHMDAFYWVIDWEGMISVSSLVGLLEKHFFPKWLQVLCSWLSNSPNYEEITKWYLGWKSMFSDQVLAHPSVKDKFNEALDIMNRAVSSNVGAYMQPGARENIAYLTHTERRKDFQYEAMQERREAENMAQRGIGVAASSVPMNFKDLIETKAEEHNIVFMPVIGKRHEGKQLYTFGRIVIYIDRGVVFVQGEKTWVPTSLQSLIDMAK
Assay: EMSA; 15, 30 nM TFIP11; 0.5 nM DNA; at most about 6% bound in Source Data; EMSA: 10 mM MgCl2, 2.5% glycerol, 0.05% NP-40, 0.5 nM biotin-DNA, 20 min, room temperature (Pierce LightShift kit). Pull-down: 20 mM Tris-HCl pH 7.5, 120 mM NaCl, 0.1% Triton X-100, 2 mM CaCl2, 10 mM Mg(OAc)2, 1 mM DTT, 0.1 mg/mL BSA, 4 °C, 30 min
Settings: protein: recombinant, tags: His-SUMO (N-terminal)

B1: dsDNA (oligo 1 + oligo 2) (dsDNA)
DNA 1: GACGCTGCCGAATTCTACCAGTGCCTTGCTAGGACATCTTTGCCCACCTGCAGGTTCAC
DNA 2: GTGAACCTGCAGGTGGGCAAAGATGTCCTAGCAAGGCACTGGTAGAATTCGGCAGCGTC
- binding result (label: 5'-biotin on oligo 1, blunt): no binding

B2: ssDNA (oligo 1) (ssDNA)
DNA: B1 DNA 1
- binding result (label: 5'-biotin, single strand): no binding
